# Measured values as given in PMC9482650, “Quantitative fragmentomics allow affinity mapping of interactomes” (Nature Communications, 2022).
# T1: APBA3_1, O96018
# T1 sequence (O96018 389-490, limits assumed, looked up): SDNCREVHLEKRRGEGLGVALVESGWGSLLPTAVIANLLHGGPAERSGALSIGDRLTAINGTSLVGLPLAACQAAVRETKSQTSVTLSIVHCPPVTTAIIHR
# T2: DFNB31_1, Q9P202
# T2 sequence (Q9P202 135-233, limits assumed, looked up): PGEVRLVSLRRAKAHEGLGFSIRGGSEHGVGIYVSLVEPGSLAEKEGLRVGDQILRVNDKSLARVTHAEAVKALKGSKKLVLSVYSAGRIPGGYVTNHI
# T3: GRIP1_3, Q9Y3R0
# T3 sequence (Q9Y3R0 247-346, limits assumed, looked up): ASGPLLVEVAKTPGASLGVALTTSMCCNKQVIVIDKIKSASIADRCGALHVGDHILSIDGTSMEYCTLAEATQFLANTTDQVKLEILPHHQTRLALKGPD
# T4: GRIP1_5, Q9Y3R0
# T4 sequence (Q9Y3R0 568-668, limits assumed, looked up): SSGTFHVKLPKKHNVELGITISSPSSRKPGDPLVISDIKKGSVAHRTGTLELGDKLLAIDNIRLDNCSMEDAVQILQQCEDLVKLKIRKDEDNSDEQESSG
# T5: PDZRN3_1, Q9UPQ7
# T5 sequence (Q9UPQ7 244-349, limits assumed, looked up): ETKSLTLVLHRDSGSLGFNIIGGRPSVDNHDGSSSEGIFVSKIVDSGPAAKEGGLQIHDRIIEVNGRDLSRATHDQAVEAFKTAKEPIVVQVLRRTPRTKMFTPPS
# T6: RADIL, Q96JH8
# T6 sequence (Q96JH8 971-1071, limits assumed, looked up): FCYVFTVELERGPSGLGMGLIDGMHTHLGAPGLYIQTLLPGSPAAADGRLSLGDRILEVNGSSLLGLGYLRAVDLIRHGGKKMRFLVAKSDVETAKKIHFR
# T7: SNTB1, Q13884
# T7 sequence (Q13884 107-205, limits assumed, looked up): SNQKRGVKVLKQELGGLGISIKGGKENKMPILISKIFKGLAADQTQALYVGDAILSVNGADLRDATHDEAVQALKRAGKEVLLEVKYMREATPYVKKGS
# T8: TX1BP3, O14907
# T8 sequence (O14907 10-122, limits assumed, looked up): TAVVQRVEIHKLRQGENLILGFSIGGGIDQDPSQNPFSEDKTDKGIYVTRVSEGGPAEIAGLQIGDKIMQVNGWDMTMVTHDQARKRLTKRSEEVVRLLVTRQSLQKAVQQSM
# B1: TMEM178B, H3BS89 (peptide)
# chain: KSRPENGTVC
# B2: IGSF5, Q9NSI5 (peptide)
# chain: PEKVSNTTVV
# Biological target: T1, APBA3_1, O96018
# Experiment: holdup assay
# Set-up: key: below the threshold = too weak to quantify, mostly under pKd 3.1 to 4
# Conditions: plain residues with an end cap or a label only (N-terminal biotin on a linker: ado-ado)
row,Binder,pKd
1,B1,below the threshold
2,B2,below the threshold

# Biological target: T2, DFNB31_1, Q9P202
# Experiment: holdup assay
# Set-up: key: below the threshold = too weak to quantify, mostly under pKd 3.1 to 4
# Conditions: plain residues with an end cap or a label only (N-terminal biotin on a linker: ado-ado)
row,Binder,pKd
1,B1,below the threshold
2,B2,below the threshold

# Biological target: DLG4_3, P78352
# Sequence (P78352 306-403): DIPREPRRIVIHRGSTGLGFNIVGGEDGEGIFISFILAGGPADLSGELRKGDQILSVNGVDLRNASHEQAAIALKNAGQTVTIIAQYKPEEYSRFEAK
# Experiment: holdup assay
# Set-up: key: below the threshold = too weak to quantify, mostly under pKd 3.1 to 4
# Conditions: plain residues with an end cap or a label only (N-terminal biotin on a linker: ado-ado)
row,Binder,pKd
1,B1,3.5
2,B2,below the threshold

# Biological target: DLG5_1, Q8TDM6
# Sequence (Q8TDM6 617-713): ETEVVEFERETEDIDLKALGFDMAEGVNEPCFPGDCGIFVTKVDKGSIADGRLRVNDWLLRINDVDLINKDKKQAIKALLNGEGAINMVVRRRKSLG
# Experiment: holdup assay
# Set-up: key: below the threshold = too weak to quantify, mostly under pKd 3.1 to 4
# Conditions: plain residues with an end cap or a label only (N-terminal biotin on a linker: ado-ado)
row,Binder,pKd
1,B1,below the threshold
2,B2,below the threshold

# Biological target: FRMPD4, Q14CM0
# Sequence (Q14CM0 67-160): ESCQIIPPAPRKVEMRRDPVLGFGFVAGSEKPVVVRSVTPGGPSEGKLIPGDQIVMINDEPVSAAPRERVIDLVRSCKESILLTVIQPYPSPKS
# Experiment: holdup assay
# Set-up: key: below the threshold = too weak to quantify, mostly under pKd 3.1 to 4
# Conditions: plain residues with an end cap or a label only (N-terminal biotin on a linker: ado-ado)
row,Binder,pKd
1,B1,3.49
2,B2,below the threshold

# Biological target: GIPC2, Q8TF65
# Sequence (Q8TF65 112-203): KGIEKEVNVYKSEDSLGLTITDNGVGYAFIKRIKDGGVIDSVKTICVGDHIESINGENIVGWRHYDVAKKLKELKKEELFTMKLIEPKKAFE
# Experiment: holdup assay
# Set-up: key: below the threshold = too weak to quantify, mostly under pKd 3.1 to 4
# Conditions: plain residues with an end cap or a label only (N-terminal biotin on a linker: ado-ado)
row,Binder,pKd
1,B1,below the threshold
2,B2,below the threshold

# Biological target: GORASP1, Q9BQQ3
# Sequence (Q9BQQ3 1-208): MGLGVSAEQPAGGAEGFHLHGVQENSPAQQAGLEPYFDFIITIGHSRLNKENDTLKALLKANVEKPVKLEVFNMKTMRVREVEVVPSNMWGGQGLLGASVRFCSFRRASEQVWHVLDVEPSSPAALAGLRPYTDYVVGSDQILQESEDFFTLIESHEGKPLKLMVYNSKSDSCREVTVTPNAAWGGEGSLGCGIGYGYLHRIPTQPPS
# Experiment: holdup assay
# Set-up: key: below the threshold = too weak to quantify, mostly under pKd 3.1 to 4
# Conditions: plain residues with an end cap or a label only (N-terminal biotin on a linker: ado-ado)
row,Binder,pKd
1,B1,below the threshold
2,B2,4.13

# Biological target: T3, GRIP1_3, Q9Y3R0
# Experiment: holdup assay
# Set-up: key: below the threshold = too weak to quantify, mostly under pKd 3.1 to 4
# Conditions: plain residues with an end cap or a label only (N-terminal biotin on a linker: ado-ado)
row,Binder,pKd
1,B1,below the threshold
2,B2,below the threshold

# Biological target: T4, GRIP1_5, Q9Y3R0
# Experiment: holdup assay
# Set-up: key: below the threshold = too weak to quantify, mostly under pKd 3.1 to 4
# Conditions: plain residues with an end cap or a label only (N-terminal biotin on a linker: ado-ado)
row,Binder,pKd
1,B1,below the threshold
2,B2,below the threshold

# Biological target: GRIP2_4, Q9C0E4
# Sequence (Q9C0E4 446-548): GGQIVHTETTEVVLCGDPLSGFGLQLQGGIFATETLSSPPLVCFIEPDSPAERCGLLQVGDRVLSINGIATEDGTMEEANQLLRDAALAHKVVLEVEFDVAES
# Experiment: holdup assay
# Set-up: key: below the threshold = too weak to quantify, mostly under pKd 3.1 to 4
# Conditions: plain residues with an end cap or a label only (N-terminal biotin on a linker: ado-ado)
row,Binder,pKd
1,B1,below the threshold
2,B2,below the threshold

# Biological target: GRIP2_7, Q9C0E4
# Sequence (Q9C0E4 934-1023): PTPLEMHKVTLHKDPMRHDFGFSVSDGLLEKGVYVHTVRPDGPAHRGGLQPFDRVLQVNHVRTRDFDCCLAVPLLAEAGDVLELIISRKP
# Experiment: holdup assay
# Set-up: key: below the threshold = too weak to quantify, mostly under pKd 3.1 to 4
# Conditions: plain residues with an end cap or a label only (N-terminal biotin on a linker: ado-ado)
row,Binder,pKd
1,B1,below the threshold
2,B2,below the threshold

# Biological target: IL16_4, Q14005
# Sequence (Q14005 1229-1329): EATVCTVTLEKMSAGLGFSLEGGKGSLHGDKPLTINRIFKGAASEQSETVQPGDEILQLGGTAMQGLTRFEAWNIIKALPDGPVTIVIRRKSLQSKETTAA
# Experiment: holdup assay
# Set-up: key: below the threshold = too weak to quantify, mostly under pKd 3.1 to 4
# Conditions: plain residues with an end cap or a label only (N-terminal biotin on a linker: ado-ado)
row,Binder,pKd
1,B1,below the threshold
2,B2,3.51

# Biological target: Inadl_1, Q8NI35
# Sequence (Q8NI35 113-229): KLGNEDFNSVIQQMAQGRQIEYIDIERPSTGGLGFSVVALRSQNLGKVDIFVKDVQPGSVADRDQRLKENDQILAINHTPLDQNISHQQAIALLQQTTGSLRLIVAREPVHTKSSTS
# Experiment: holdup assay
# Set-up: key: below the threshold = too weak to quantify, mostly under pKd 3.1 to 4
# Conditions: plain residues with an end cap or a label only (N-terminal biotin on a linker: ado-ado)
row,Binder,pKd
1,B1,below the threshold
2,B2,below the threshold

# Biological target: Inadl_6, Q8NI35
# Sequence (Q8NI35 1058-1167): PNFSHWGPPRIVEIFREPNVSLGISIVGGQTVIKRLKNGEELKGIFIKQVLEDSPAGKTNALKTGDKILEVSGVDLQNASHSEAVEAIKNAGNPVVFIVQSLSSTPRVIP
# Experiment: holdup assay
# Set-up: key: below the threshold = too weak to quantify, mostly under pKd 3.1 to 4
# Conditions: plain residues with an end cap or a label only (N-terminal biotin on a linker: ado-ado)
row,Binder,pKd
1,B1,below the threshold
2,B2,below the threshold

# Biological target: LNX1_1, Q8TBB1
# Sequence (Q8TBB1 261-371): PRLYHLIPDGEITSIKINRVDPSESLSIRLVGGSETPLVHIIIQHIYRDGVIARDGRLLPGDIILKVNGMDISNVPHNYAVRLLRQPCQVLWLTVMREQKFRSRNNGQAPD
# Experiment: holdup assay
# Set-up: key: below the threshold = too weak to quantify, mostly under pKd 3.1 to 4
# Conditions: plain residues with an end cap or a label only (N-terminal biotin on a linker: ado-ado)
row,Binder,pKd
1,B1,below the threshold
2,B2,3.67

# Biological target: LNX1_2, Q8TBB1
# Sequence (Q8TBB1 371-470): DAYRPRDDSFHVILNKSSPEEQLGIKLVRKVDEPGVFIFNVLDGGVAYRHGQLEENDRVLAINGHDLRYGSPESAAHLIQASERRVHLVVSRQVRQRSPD
# Experiment: holdup assay
# Set-up: key: below the threshold = too weak to quantify, mostly under pKd 3.1 to 4
# Conditions: plain residues with an end cap or a label only (N-terminal biotin on a linker: ado-ado)
row,Binder,pKd
1,B1,4.05
2,B2,3.73

# Biological target: LNX1_3, Q8TBB1
# Sequence (Q8TBB1 500-596): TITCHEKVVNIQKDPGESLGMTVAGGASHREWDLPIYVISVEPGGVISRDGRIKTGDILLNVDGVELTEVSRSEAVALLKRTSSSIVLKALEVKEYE
# Experiment: holdup assay
# Set-up: key: below the threshold = too weak to quantify, mostly under pKd 3.1 to 4
# Conditions: plain residues with an end cap or a label only (N-terminal biotin on a linker: ado-ado)
row,Binder,pKd
1,B1,below the threshold
2,B2,below the threshold

# Biological target: MAGI1_1, Q96QZ7
# Sequence (Q96QZ7 1-106): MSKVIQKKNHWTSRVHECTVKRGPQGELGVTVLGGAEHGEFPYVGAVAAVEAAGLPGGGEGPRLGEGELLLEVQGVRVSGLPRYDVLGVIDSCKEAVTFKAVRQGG
# Experiment: holdup assay
# Set-up: key: below the threshold = too weak to quantify, mostly under pKd 3.1 to 4
# Conditions: plain residues with an end cap or a label only (N-terminal biotin on a linker: ado-ado)
row,Binder,pKd
1,B1,below the threshold
2,B2,below the threshold

# Biological target: MAGI1_2, Q96QZ7
# Sequence (Q96QZ7 456-580): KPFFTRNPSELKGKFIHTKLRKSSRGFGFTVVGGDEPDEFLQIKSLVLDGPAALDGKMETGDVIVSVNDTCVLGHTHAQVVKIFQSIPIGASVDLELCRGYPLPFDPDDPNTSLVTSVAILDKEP
# Experiment: holdup assay
# Set-up: key: below the threshold = too weak to quantify, mostly under pKd 3.1 to 4
# Conditions: plain residues with an end cap or a label only (N-terminal biotin on a linker: ado-ado)
row,Binder,pKd
1,B1,below the threshold
2,B2,3.54

# Biological target: MAGI2_5, Q86UL8
# Sequence (Q86UL8 915-1017): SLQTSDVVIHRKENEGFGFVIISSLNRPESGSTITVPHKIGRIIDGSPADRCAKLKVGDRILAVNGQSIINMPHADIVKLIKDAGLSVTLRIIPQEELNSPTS
# Experiment: holdup assay
# Set-up: key: below the threshold = too weak to quantify, mostly under pKd 3.1 to 4
# Conditions: plain residues with an end cap or a label only (N-terminal biotin on a linker: ado-ado)
row,Binder,pKd
1,B1,below the threshold
2,B2,3.64

# Biological target: MAGI2_6, Q86UL8
# Sequence (Q86UL8 1141-1229): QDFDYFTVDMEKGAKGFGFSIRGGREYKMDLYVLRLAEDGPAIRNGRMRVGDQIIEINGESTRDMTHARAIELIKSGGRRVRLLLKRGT
# Experiment: holdup assay
# Set-up: key: below the threshold = too weak to quantify, mostly under pKd 3.1 to 4
# Conditions: plain residues with an end cap or a label only (N-terminal biotin on a linker: ado-ado)
row,Binder,pKd
1,B1,below the threshold
2,B2,below the threshold

# Biological target: T5, PDZRN3_1, Q9UPQ7
# Experiment: holdup assay
# Set-up: key: below the threshold = too weak to quantify, mostly under pKd 3.1 to 4
# Conditions: plain residues with an end cap or a label only (N-terminal biotin on a linker: ado-ado)
row,Binder,pKd
1,B1,below the threshold
2,B2,below the threshold

# Biological target: PDZRN4_1, Q6ZMN7
# Sequence (Q6ZMN7 213-318): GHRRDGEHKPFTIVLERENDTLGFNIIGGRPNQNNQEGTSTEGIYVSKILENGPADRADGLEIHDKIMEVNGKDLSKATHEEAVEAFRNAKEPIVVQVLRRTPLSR
# Experiment: holdup assay
# Set-up: key: below the threshold = too weak to quantify, mostly under pKd 3.1 to 4
# Conditions: plain residues with an end cap or a label only (N-terminal biotin on a linker: ado-ado)
row,Binder,pKd
1,B1,below the threshold
2,B2,below the threshold

# Biological target: PICK1, Q9NRD5
# Sequence (Q9NRD5 17-115): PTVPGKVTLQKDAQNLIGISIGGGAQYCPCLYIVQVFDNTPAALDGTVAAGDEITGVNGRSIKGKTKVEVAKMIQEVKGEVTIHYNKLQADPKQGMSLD
# Experiment: holdup assay
# Set-up: key: below the threshold = too weak to quantify, mostly under pKd 3.1 to 4
# Conditions: plain residues with an end cap or a label only (N-terminal biotin on a linker: ado-ado)
row,Binder,pKd
1,B1,below the threshold
2,B2,4.15

# Biological target: T6, RADIL, Q96JH8
# Experiment: holdup assay
# Set-up: key: below the threshold = too weak to quantify, mostly under pKd 3.1 to 4
# Conditions: plain residues with an end cap or a label only (N-terminal biotin on a linker: ado-ado)
row,Binder,pKd
1,B1,below the threshold
2,B2,4.3

# Biological target: SCRIB_3, Q14160
# Sequence (Q14160 999-1103): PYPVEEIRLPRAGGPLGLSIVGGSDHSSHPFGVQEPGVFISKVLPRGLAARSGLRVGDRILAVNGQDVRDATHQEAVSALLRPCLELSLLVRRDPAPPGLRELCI
# Experiment: holdup assay
# Set-up: key: below the threshold = too weak to quantify, mostly under pKd 3.1 to 4
# Conditions: plain residues with an end cap or a label only (N-terminal biotin on a linker: ado-ado)
row,Binder,pKd
1,B1,3.66
2,B2,below the threshold

# Biological target: T7, SNTB1, Q13884
# Experiment: holdup assay
# Set-up: key: below the threshold = too weak to quantify, mostly under pKd 3.1 to 4
# Conditions: plain residues with an end cap or a label only (N-terminal biotin on a linker: ado-ado)
row,Binder,pKd
1,B1,3.56
2,B2,3.93

# Biological target: SNX27, Q96L92
# Experiment: holdup assay
# Set-up: key: below the threshold = too weak to quantify, mostly under pKd 3.1 to 4
# Conditions: plain residues with an end cap or a label only (N-terminal biotin on a linker: ado-ado)
row,Binder,pKd
1,B1,3.58
2,B2,4.51

# Biological target: T8, TX1BP3, O14907
# Experiment: holdup assay
# Set-up: key: below the threshold = too weak to quantify, mostly under pKd 3.1 to 4
# Conditions: plain residues with an end cap or a label only (N-terminal biotin on a linker: ado-ado)
row,Binder,pKd
1,B1,below the threshold
2,B2,below the threshold
